In patent US20230355541A1, “ENZYMATICALLY CLEAVABLE SELF-ASSEMBLED NANOPARTICLES FOR MORPHOGEN DELIVERY” (UNIVERSITY OF SOUTH CAROLINA, priority 2019, published 2023):

target: T1, BSA (Bos taurus, UniProt P02769); experiment: Circular dichroism of BSA grafted to PxSPCP NPs; assay type: physicochemical, bovine; conditions: PBS, 20° C.
T1 construct: purchased Jackson ImmunoResearch (West Grove, Pa.)
Description: Bioactivity and Cell Compatibility of BMP2-PxSPCP NPs: Circular dichroism (CD) was used to determine the effect of grafting on secondary structure of the model BSA protein. CD spectra of free or grafted BSA in PBS were collected with a spectropolarimeter (JASCO J815, Essex, UK) at 20° C. with a cuvette of 0.1 cm path length. For evaluation of cell compatibility, hMSCs (1×10^6 cells/mL) and PxSPCP NPs (10 mg) were encapsulated in LPELA hydrogel and cultured in basal medium. At each time point, the hydrogels were stained with cAM/EthD live/dead assay (1 μg/mL) and the stained cells were imaged with an inverted fluorescent microscope (Nikon Eclipse Ti-ε, Nikon, Melville, N.Y.). To quantify cell viability, the medium was replaced with fresh medium containing 10% MTS and incubated for 6 hours at 37° C. and the sample absorbance was measured with a microplate reader (Molecular Devices, San Jose, Calif.) at a wavelength of 490 nm.

T1 sequence (P02769 25-607): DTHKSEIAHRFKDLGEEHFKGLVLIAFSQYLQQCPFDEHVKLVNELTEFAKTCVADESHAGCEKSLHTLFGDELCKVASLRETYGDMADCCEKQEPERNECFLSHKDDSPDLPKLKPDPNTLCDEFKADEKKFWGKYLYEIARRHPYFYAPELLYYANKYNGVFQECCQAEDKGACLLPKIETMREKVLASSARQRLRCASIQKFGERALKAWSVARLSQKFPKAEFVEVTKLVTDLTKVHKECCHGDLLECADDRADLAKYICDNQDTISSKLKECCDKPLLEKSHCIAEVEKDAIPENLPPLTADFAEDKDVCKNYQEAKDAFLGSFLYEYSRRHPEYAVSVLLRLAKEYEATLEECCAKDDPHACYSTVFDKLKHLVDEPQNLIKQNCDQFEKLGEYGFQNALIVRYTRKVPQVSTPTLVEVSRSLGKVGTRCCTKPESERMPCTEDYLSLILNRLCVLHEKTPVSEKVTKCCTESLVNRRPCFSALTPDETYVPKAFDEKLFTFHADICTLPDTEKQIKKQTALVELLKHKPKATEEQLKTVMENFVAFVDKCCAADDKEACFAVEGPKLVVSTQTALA

Row | Substance | CD spectrum of grafted BSA compared with free BSA
1 | BSA-P0.5SPCP NPs: BSA grafted to P0.5SPCP NPs | close to that of free BSA
2 | BSA-P2SPCP NPs: BSA grafted to P2SPCP NPs | slight change
3 | BSA-P5SPCP: BSA grafted to P5SPCP NPs | substantially different
4 | BSA-P7.5SPCP: BSA grafted to P7.5SPCP NPs | substantially different
